From the supplement of paper PMC9170038

Test system: MS2 coat protein
Assay: apparent KD of MS2 coat protein; designed switch direction (-1 OFF switch, 1 ON switch): -1; higher = weaker reporter binding
Outline: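 Designed RNA switches with common flanks were transcribed on Illumina chips by stalled E. coli RNA polymerase and titrated with SNAP-549-labelled MS2 coat protein, from 0.7 or 1.5 nM doubling to 3 µM, in Tris-HCl pH 7.5 buffer with KCl, MgCl2, BSA, DTT, tRNA and Tween-20. Steps lasted 0.8–1.5 h (lowest) to 10–20 min (highest). Titrations ran without input, with 200 uM small-molecule ligand, or with an oligonucleotide input. Normalised cluster fluorescence was curve-fitted, and apparent KD is the per-design median over clusters.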

[1] = input ligand: microRNA oligo, concentration not stated
[2] = Eterna round: R95, input ligand: microRNA oligo, concentration not stated
[3] = Eterna round: R95, input ligand: FMN 200 uM
[4] = Eterna round: R95, input ligand: none

| Sequence | apparent KD of MS2 coat protein (input ligand: FMN 200 uM) | apparent KD of MS2 coat protein [1] | apparent KD of MS2 coat protein (input ligand: none) | apparent KD of MS2 coat protein [2] | apparent KD of MS2 coat protein [3] | apparent KD of MS2 coat protein [4] |
| --- | --- | --- | --- | --- | --- | --- |
| AUGGGUCCUCACGGAGCUACAUGAGGAUCACCCAUGUGUAUUGAGGAUAUCCACUGCCGAGGGCUGGAGAAGGCAGUGUACUGU [Ex NG3 #92] (Eterna round: R96, puzzle: Exclusion NG 3) | 124 nM | 89.3 nM | 108 nM | – | – | – |
| GGUCCACAUGAGGAUCACCCAUGUAAUAACAUGCAGCGCAGGAAGGAUAUGCCCGAACAAAGCCAGCAGAAGGUCCAUUAACAU [Eternabot solution 7] (Eterna round: R96, puzzle: Exclusion NG 3) | 166 nM | 84.5 nM | 128 nM | – | – | – |
| CUCUUGUUAGGAUAUCAAACCGGCAGCGGAGCCGCCGGAAGUGAGAAGGGACAUGAGGAUCACCCAUGUAAGAA [Quatdior] (puzzle: Exclusion 4) | – | – | – | 58.9 nM | – | – |
| GGAUCUUGGGUCAGGAUAUGCUGAUAUUUUUGUCAGCAGAAGGGACAUGAGGAUCACCCAUGUGCUUGGUUUUG [Magic-16] (puzzle: Brourd's mod of Exclusion 4) | – | – | – | 12.6 nM | – | – |
| AGCUGUGGCCGAGGAUAUCCACAUGAGGAUCACCCAUGUGAAUACCCAAUUAAGGGAUAACCGUGGGAGAAGGCGGUCUCAGCA [Eli eng2 - 048] (Eterna round: R96, puzzle: Exclusion NG 2) | 80.9 nM | 112 nM | 167 nM | – | – | – |
| UGUGCGUAUGUGAGGAUAUGCUGGUCCUUGGAUCGGCAGAAGGCACAUGAGGAUCACCCAUGUGGUGUCGUUCC [salish99_Bmod_ex4_095] (puzzle: Brourd's mod of Exclusion 4) | – | – | – | 102 nM | – | – |
| ACAAGCUUUUUGUUCGUCUUAUAAAAUCCUAAGAGGAUAACAUGAGGAUCACCCAUGUAACAAAGACGGACUCAUGU [Sesor Array 13 - Jieux - Sensor v3, turn-off variant 2] (puzzle: Sensor v3, turn-off variant 2) | – | – | – | 120 nM | 11.7 nM | 9.57 nM |
| UUUUUAUAUGAAGGAUAUACUUAACAUGAGGAUCACCCAUGUGGUGUUGUGAGUGAGUGAGUUUAGUAGAAGGUCAAUGAUUUU [JMF's solution 10] (Eterna round: R96, puzzle: Exclusion NG 2) | 730 nM | 326 nM | 345 nM | – | – | – |
| AUCGUGGCUCAGGAUAUCAGCCCUGUGGAGUUCUGAGAAGGGAGCACAUGAGGAUCACCCAUGUGAAAGGGUAC [Esdienar] (puzzle: Exclusion 6) | – | – | – | 45.6 nM | 148 nM | 40.8 nM |
| AACCUGAGGCUUUGCUUUAGGUGUACAUGAGGAUCACCCAUGUAGGAUAUGGUAGGCUUUGCUUACCAGAAGGACAUUUAGGUU [JL ENG3 1.15] (Eterna round: R96, puzzle: Exclusion NG 3) | 110 nM | 33.6 nM | 43 nM | – | – | – |
| ACUUACUGAGGAUAUACAUAGAUUUACAUGAGGAUCACCCAUGUUCCUCUAAGUAUAUAUGUAGAAGGCAGAAGGU [Mat - Exclusion 5 - JL Mod - D42] (Eterna round: R97, puzzle: Exclusion 5) | 177 nM | – | 214 nM | – | – | – |
| GCAGCUUAGUUAACAGACUGUUACAUGAGGAUCACCCAUGUACAGGAUAUGGUCUGGAUUACAGGCCAGAAGGGUACAAGCUGC [Eli exng3 - 018] (Eterna round: R96, puzzle: Exclusion NG 3) | 9.62 nM | 9.01 nM | 11.5 nM | – | – | – |
| CCUCUACAUGAGGAUCACCCAUGUGAGGAUAUCUCGGAAAAGCCACUUAAGGUACUCCAGAGAAGGCACGUGUA [Rileed] (puzzle: Exclusion 1) | – | – | – | 15.2 nM | – | – |
| AAGAAACAUGAGGAUCACCCAUGUGAGGAUAUGAAAAAUAAAAGAAAAGAAAUAAUAAUCAGAAGGCACAAAGG [Mat - Mod of Hog D9] (puzzle: Exclusion 1) | – | – | – | 26.6 nM | 43 nM | 28.9 nM |
| ACAUGAGGAUCACCCAUGUAAUCAUGAUGGCUGAUGUAGAGGUAGGAUAUGUGUGGCUUUCUAUCACAGAAGGACCAAGACUGG [Deportation 38 - Jieux - Exclusion NG 3] (Eterna round: R96, puzzle: Exclusion NG 3) | 46.3 nM | 46.6 nM | 59.8 nM | – | – | – |
| UUUUAGGCAGGAUAUACAUGAGGAUCACCCAUGUAAAUUUUUCGUUUAACUUGAAUGUGUAGAAGGGCCAUUUU [Ex3 #59] (Eterna round: R97, puzzle: Exclusion 3) | 20.7 nM | – | 20.2 nM | – | – | – |
| CUGAUGUCAGGAUAUCAGAAAAGGCGCAAGGACACGCCAAAUGAGAAGGGACAUGAGGAUCACCCAUGUAAAAC [Orata] (puzzle: Exclusion 4) | – | – | – | 20.8 nM | 107 nM | 18.1 nM |

| Sequence | apparent KD of MS2 coat protein (input ligand: FMN 200 uM) | apparent KD of MS2 coat protein [1] | apparent KD of MS2 coat protein (input ligand: none) | apparent KD of MS2 coat protein [2] | apparent KD of MS2 coat protein [3] | apparent KD of MS2 coat protein [4] |
| --- | --- | --- | --- | --- | --- | --- |
| ACAUGUUAUGUAGGAUAUUGGACACAUGAGGAUCACCCAUGUAACCGGAGGCUUUACUAUGAGUUCGAGAAGGGUAUGAACAUG [Ex NG2 #67] (Eterna round: R96, puzzle: Exclusion NG 2) | 77.5 nM | 44.3 nM | 49.1 nM | – | – | – |
| GUCGUGCGGCUUUGCUGUACGAGUACAUGAGGAUCACCCAUGUAGGAUAUGGUACGCUUUGCGUGCCAGAAGGGCGUGCGUUGG [salish99_ExNG3_r04_006] (Eterna round: R96, puzzle: Exclusion NG 3) | 33.3 nM | 23.9 nM | 29.9 nM | – | – | – |
| ACGAUGACUGAAAGAAGUCAAAAGACAUGAGGAUCACCCAUGUAGGAUAUGGCUACGAAAAGUAGUCAGAAGGACAAGUCAUCA [Omei Exc(NG) 3 Av4] (Eterna round: R96, puzzle: Exclusion NG 3) | 10.1 nM | 9.69 nM | 14.1 nM | – | – | – |
| CUAGCGAAUGUAGGAUAUCGGACUGUUUCAGUCUGAGAAGGACAUGAGGAUCACCCAUGUAUAGCUACGUGAGUAGCUCGCUAG [JL ENG1 3.91] (Eterna round: R96, puzzle: Exclusion NG 1) | 43.6 nM | 13 nM | 17.1 nM | – | – | – |
| GAUGGUCGAGGAUAUGCACCAGGGUCGACCUACUAGCGAAGACAUGAGGAUCACCCAUGUAGAAGGUGGCGGUU [Eternabot (L2) Solution 75] (Eterna round: R97, puzzle: Exclusion 2) | 73.9 nM | – | 82.4 nM | – | – | – |
| UUUGUUUAUGUAGGAUAUGCCUGGCGUGCCUUUGCAGAAGGACAUGAGGAUCACCCAUGUAACAUGAGGCUCACCCAUGUCGCG [salish99_ExNG1_r04_112] (Eterna round: R96, puzzle: Exclusion NG 1) | 285 nM | 152 nM | 277 nM | – | – | – |
| CAGCUGAAAGUGAGGAUAUCUAGAGCUGCGGCUCUAGAGAAGGCACAUGAGGAUCACCCAUGUCUCAACAGCUG [BmEx4/1-A3] (Eterna round: R97, puzzle: Brourd's mod of Exclusion 4) | 51.9 nM | – | 18.1 nM | – | – | – |
| ACAUGAGGAUCACCCAUGUGACCACAAUGGCUGAUGUAACAACAGGAUAUGCGUGAAUAUCUAACGCAGAAGGGUUAUGACUGG [Deportation 60 - Jieux - Exclusion NG 3] (Eterna round: R96, puzzle: Exclusion NG 3) | 73.5 nM | 71.6 nM | 65.4 nM | – | – | – |
| AGGGUGGGAGGAUAUCCAAUAUAUGACAUGAGGAUCACCCAUGUUUCCACUCGUACCUCCGGAGAAGGCCCUCCCA [Ex5 #22] (Eterna round: R97, puzzle: Exclusion 5) | 21.5 nM | – | 22.1 nM | – | – | – |
| UGGGAACGAGGAUAUCGAUGGUGGAACAUGAGGAUCACCCAUGUAUGAGAUAGUGUAGUUCGAGAAGGCGUUAAGU [JR_E5_Sub053] (puzzle: Exclusion 5) | – | – | – | 54 nM | – | – |
| AUAAAGCAAGCAUGGUCCCACAUGAGGAUCACCCAUGUGUUCGUCUUAUAGGCUGCUGUGGCUUUUGCCUCGUUGGC [LRO Sensor-off var1-09 loose mod of D91 from Mat747] (Eterna round: R97, puzzle: Sensor, turn-off variant 1) | 41.6 nM | – | 46 nM | – | – | – |
| UCGGCGCGAGGAUAUGCGGUUGCUUGGUAGGGUCGGAGCGUACAUGAGGAUCACCCAUGUAGAAGGCGCGCCGC [Apr-15 SS2-33] (puzzle: Exclusion 2) | – | – | – | 15.5 nM | – | – |
| UAUUUACAUGAGGAUCACCCAUGUCAGGAUAUGCGUCGAUCGUCGAAAGACGAUAGCCGCAGAAGGGACAAUAU [LRO-Excl01-20 mod derived from EliFisker 4.24] (Eterna round: R97, puzzle: Exclusion 1) | 246 nM | – | 83.1 nM | – | – | – |
| CUGAGUAGAGGAUAUACAUGAGGAUCACCCAUGUAAAGUAGCUUGCGUACAGGCAGAUGUAGAAGGUUAUUCGG [Mod of JL 13 - Jieux - Exclusion 3] (Eterna round: R97, puzzle: Exclusion 3) | 53.1 nM | – | 50.9 nM | – | – | – |
| UUGAUUGGUGUAGGAUAUGUAUGAGGAUCACCCAUUAAUAAAUUUUAACCACGAGGAUCACCCGUGUAGAAGGACAUUGGUCAA [pwkr exNG2 2xF5 1xFMN.19] (Eterna round: R96, puzzle: Exclusion NG 2) | 33.1 nM | 23.5 nM | 38.4 nM | – | – | – |
| GCAGGUCGAGGAUAUACAUGAGGAUCACCCAUGUGGUCACGUGACGAUAGUCACGAAUGUAGAAGGUGACCUGC [E3/3-B2] (Eterna round: R97, puzzle: Exclusion 3) | 3.13 nM | – | 207 nM | – | – | – |
